# Results from patent US20240180962A1.
# Target: CD20 on ARH-77 tumor cells (CD20+ plasma cell leukemia cell line, ATCC CRL-1621) (human) (UniProt P11836)
# Assay: cell-based or functional assay
# UniProt P11836, sequence (P11836 whole entry): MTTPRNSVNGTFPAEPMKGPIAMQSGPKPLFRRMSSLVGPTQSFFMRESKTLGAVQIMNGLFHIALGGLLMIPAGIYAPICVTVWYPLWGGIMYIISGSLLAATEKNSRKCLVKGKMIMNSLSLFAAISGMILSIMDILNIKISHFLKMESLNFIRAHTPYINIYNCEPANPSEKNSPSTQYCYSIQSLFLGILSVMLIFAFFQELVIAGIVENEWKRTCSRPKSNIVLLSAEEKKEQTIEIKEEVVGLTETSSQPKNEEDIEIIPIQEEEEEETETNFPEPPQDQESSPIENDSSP
substance,measurement,value
obinutuzumab (antibody),"AB-101 killing activity (ADCC, 4 hour caspase assay against ARH-77 cells)",66 fold
